Measured values taken from article PMC6468313, “Role of Cdc23/Mcm10 in generating the ribonucleotide imprint at the mat1 locus in fission yeast” (Nucleic Acids Research, 2019).

Target: T1, GST-Cdc23 (S. pombe, UniProt O42709 1-593)
T1 construct: Cdc23/Mcm10 of S. pombe; also called GST-tagged Cdc23; source: E. coli Codon Plus, from pGEX2T, induced with 1 mM IPTG for 16 h at 18°C; ultrafilter-concentrated extract (pull-down); partially purified (far-western)
T1 sequence (looked up): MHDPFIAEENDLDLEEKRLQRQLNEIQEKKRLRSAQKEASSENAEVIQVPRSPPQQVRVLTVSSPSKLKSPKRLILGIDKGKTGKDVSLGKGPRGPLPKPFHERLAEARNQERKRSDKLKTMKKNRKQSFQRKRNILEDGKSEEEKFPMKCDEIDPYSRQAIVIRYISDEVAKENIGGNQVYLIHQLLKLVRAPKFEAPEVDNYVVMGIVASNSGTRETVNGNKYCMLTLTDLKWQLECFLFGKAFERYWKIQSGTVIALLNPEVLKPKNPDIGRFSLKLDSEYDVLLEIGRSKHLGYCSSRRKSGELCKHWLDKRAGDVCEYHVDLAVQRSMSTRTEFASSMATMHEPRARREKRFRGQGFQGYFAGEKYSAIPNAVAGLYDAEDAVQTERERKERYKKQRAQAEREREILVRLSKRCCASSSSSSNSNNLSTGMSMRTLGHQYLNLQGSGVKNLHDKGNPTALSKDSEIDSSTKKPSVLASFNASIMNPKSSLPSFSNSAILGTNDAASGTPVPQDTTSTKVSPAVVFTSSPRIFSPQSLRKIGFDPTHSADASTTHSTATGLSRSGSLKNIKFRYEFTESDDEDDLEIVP
Experiment: far-Western, overlay or dot blot; partially purified GST and GST-Cdc23 resolved by SDS-PAGE, blotted and progressively renatured; incubated with purified extracts from E. coli expressing MBP, MBP-Polα^+ or MBP-Polα^Swi7-1; probed with anti-Polα
Details: both partners purified

B1: MBP-Polα^Swi7-1 (natural protein, S. pombe, UniProt P28040 1-1405, looked up)
chain: MRKRNAGIKPSQRFAELRALRQAGKTRASTYESKENEELYDNVSEEEYRKIVRQRLDEDDFVVDDNGAGYVDNGYDEWDQSHYSDEDDENEKGSSGRKRKKSKNVLAEPNQQIGAFFKANAIQPASRIANRKNNEKEDEFMAEILGSIDQDIPERLSTKKGNRSHTTSNAKRRSQKAASSISTTNVVSSDPKKYIPETVPSTPQPASSLPIPSSPPAALETEENVDSQPMELDEPELPVGSDAPIIDVEESIAMKPLMSHDQVDDTASLSKATISQQPLSPMTPLSSELDVSAFSEINSKIKNVDVPASSYSSPISKVSPSDVTEEDGSLFFFWMDYTEMYGSLCLFGKVYDKATKQYVSCFLKVDGIMRSLYFLPRPSSSSVSEDSIAAQTKDVYDEVANLLSKRGVKEWKSRVSKYKYAFELEDVPRTADYLEVIYSYSYPALPTDLTGSSFSHVFGTNTALFEQFVLSRRVMGPCWLKIQQPNFDAVKNASWCRVEIGCSSPQNISVSFEKNEITSKTPPMTVMSLAFRTLINKEQNKQEVVMISARIFENVDIEKGLPANDMPSYSFSLIRPLKQIFPNGFEKLARQHKSSIFCERSEVSLLNNFLNKVRTYDPDVYFGHDFEMCYSVLLSRLKERKIHNWSSIGRLRRSEWPRSFNRSSQQFVEKQIIAGRLMCDLSNDFGRSMIKAQSWSLSEIVLKELDIKRQDINQEKALQSWTDTAHGLLDYLVHCEIDTFFIAAVAFKIQMLQLSKNLTNIAGNSWARTLTGTRAERNEYILLHEFKKNGYIVPDKQQSIRRHAEAFGAEDGLQEESLGKKKDKYKGGLVFEPQKGLYETCILVMDFNSLYPSIIQEYNICFTTVDRSPSNSDSDDQIPDTPSASANQGIFPRLIANLVERRRQIKGLLKDNSATPTQRLQWDIQQQALKLTANSMYGCLGYTKSRFYARPLAVLITYKGREALMNTKELADQMGLQVIYGDTDSVMLNTNVTDKNHALRIGNEFKEKVNERYSKLEIDIDNVYQRMLLHAKKKYAALQLDSQGKPNLDVKGLDMKRREFCTLAKEASKFCLDQILSGELTETVIENIHSYLMDFSEKMRNGKFPANKFIIFNRLEKNPEDYPNGKTMPFVQVALKKKARGENVRVGDVIPFIIAGSDADGHPADRAYSPQEIMNTNSTLVIDYNYYLSHQILPPIERVIAPIEGTNRARLAECLGLDARKYYSHETSESSAFQRYESTLTDDQCFINVSPLLLKCPSCNATSFSLRSVKSLKETLYANTVECDCGYEYSDFTIILQFSSQLRDFINLYYEGILVCDDSSCGNRTRQMSVYGKRCCNKSCRGSVHFEYNDEQLYNQIKFLLKAVQTTTGATRNGIIRCNAINKNISRIMNKNAREFVDMGLIFSS
notes: catalytic subunit of DNA polymerase α (Swi7) of S. pombe with the swi7-1 mutation G1116E; also called MBP-tagged swi7-1/polα; Polα^7-1; source: E. coli, from pMALp2, induced with 1 mM IPTG for 8 h at 25°C; purified on amylose resin (far-western)
- fold weaker interaction than with Polα^+: ~3 fold
